Measured values: the RNAGym collection of RNA variant scans (doi:10.7554/elife.80360)

B1: HDV Ribozyme (parent)
chain: GGCCGGCAUGGUCCCAGCCUCCUCGCUGGCGCCGGCUGGGCAACAUUCCGAGGGGACCGUCCCCUCGGUAAUGGCGAAUGGGACCCA

Variants of: B1
Assay: self-cleavage, relative activity (ratio to wild type); higher = more cleavage; co-transcriptional

Variant | self-cleavage
G1U C33A | 0.295
G2A A71U | 0.106
G2C G82C | 0.0272
G2C G67C | 0.113
G1C G35U | 0.155
G2C G81C | 0.0583
G2C G81U | 0.0203
C3A A83C | 0.177
G1U C44U | 0.252
G2U C32G | 0
G2A C75U | 0.0715
G2C G31A | 0.0382
G2U G53U | 0.0256
G2C C22U | 0.0567
G2C C22G | 0.0875
G2C C22A | 0.114
G2A G80A | 0.0735
G2A G80C | 0.0378
G1C C14U | 0.213
G1U C4G | 0.634
G1C G34C | 0.0594
G1C C32A | 0
G1C C32U | 0.192
G2C A43C | 0.147

Variant | self-cleavage
G1C U20A | 0
G1C C30A | 0.104
G1U G40A | 0.426
G1U G40U | 0.225
G2C A45U | 0
G1C G38A | 0
G2A C64A | 0.248
G2A C64U | 0.18
G2A G67U | 0.157
G2A G67C | 0.0536
G1U G82U | 0.389
G1U G82C | 0.47
G1U G82A | 0.241
G1U G35U | 0.288
G1U G35A | 0.192
G2C G59U | 0.0343
G1U C64G | 0.432
G1U C64A | 0.453
G2C G50U | 0.0594
G2U C26G | 0.0627
G1C U47A | 0.256
G2C C41U | 0.0475
G1U U72G | 0.269
G1C U46C | 0.229

Variant | self-cleavage
G2U A78G | 0.089
G2C U9A | 0.0755
G2A G29A | 0.0288
G2C C4A | 0.0282
G2C C4G | 0.794
G1U C75G | 0.162
G1U G10U | 0.336
G1C C48G | 0.346
G1C G76C | 0.237
G2A G17U | 0.0432
G2A G74C | 0.0811
G2A G74U | 0.073
G1C C7A | 0.0405
G1C C7U | 0.0475
G1U C61U | 0.377
G1C A45C | 0.145
C3A A87G | 0.378
C3A A87C | 0.515
G1U C3G | 1.6
G2C U72G | 0.0791
G2C U72C | 0.142
G1U U27A | 0.44
G2C C15A | 0.0297
G2C C15G | 0

Variant | self-cleavage
G2U C18A | 0
G2A G73A | 0.0742
G2U G6U | 0.0621
G2C C14U | 0.0504
G2C C14A | 0.0615
C3A C18G | 0
G2A U27C | 0.125
G1C G55C | 0.214
G1C G55U | 0.203
G2A G28C | 0.0415
G2A G28U | 0.0364
G2U A51C | 0.0528
G2U G35C | 0.016
G2C U46C | 0.0475
G2C G6A | 0.0839
G2C G6C | 0.0386
G2C G25C | 0.0346
G2U C61U | 0.103
G2C C24U | 0.0405
G2C C24G | 0.0361
C3A C21G | 0.0115
G2A C48A | 0.17
G2A C48G | 0.157
G2A C48U | 0.216

Variant | self-cleavage
G2U G68C | 0.0339
G2A C15G | 0.0277
G2C U20G | 0
G1U G17A | 0.212
G2C C57U | 0.073
G2C C66U | 0.0373
G2A U23A | 0.219
G2A U23G | 0.0886
G2A U23C | 0.0511
G1U A71C | 0.297
G2C G40C | 0.122
G2C U79A | 0.133
G1U C15G | 0.0852
G1U C15U | 0.269
G1U C15A | 0.302
G2C A83U | 0.0791
G2A A43G | 0.0234
G2U C84G | 0.0213
G2U G82U | 0.0171
G1C G28U | 0.107
G1C G11U | 0.115
G2A U37C | 0.232
G2A U37G | 0
G1U G5C | 0.755

Variant | self-cleavage
G1U G5U | 0.402
G1U A8U | 0.388
G1U A8C | 0.415
G1U A8G | 0.426
G1U G34U | 0.215
G1U G34A | 0.298
G2C C48U | 0.0923
G1C C36G | 0.0437
C3A A56U | 0.71
G1U U60G | 0.443
G2A C24A | 0.0815
G1C G73C | 0.142
G2C C18U | 0.0615
G2A A70C | 0.157
G2A A70G | 0.0511
G1C C18U | 0.0437
G1C C18A | 0.123
G2C A77C | 0
G1C A83C | 0.185
G2U U72G | 0
C3A A71C | 0.105
G1C G6A | 0.0554
G2U C36U | 0.0308
G2U C36A | 0.366

Variant | self-cleavage
G2C U65G | 0.0264
G2U C30A | 0.0396
G1U C7U | 0.269
G2U C66A | 0.0525
G2A G76U | 0.332
C3A A78C | 0.0785
C3A A78G | 0.119
G1U G2U | 0.366
G1U G2C | 0.519
G2A C86A | 0.172
G2A C86U | 0.277
G1C C63G | 0.0639
G1C C63A | 0.201
G2C C49A | 0.0594
G2C C49U | 0.132
G1U C48U | 0.415
G1C A56C | 0.172
G1C A56G | 0.356
G1C U69A | 0.0875
G1C A70U | 0.115
G1C A70G | 0.453
G2A C36U | 0.537
G2A C36G | 0.0764
